We go through 7 molecules from patent publication US20130011375A1 (published 2013).

The target in experiment [1] is T1, HCV NS5 peptide on HLA-A*02:01 (human).
T1 peptide: VLTDFKTWL
Nature of the experiment: cytokine release.

Experiment [2] concerns the target T2, HCV NS3 1073-1081, alanine analogue 1074-Ala (position 2) peptide on HLA-A*02:01 (human).
T2 peptide: CANGVCWTV
Kind of experiment: T cell clone or line.

The target in experiment [3] is T3, HCV NS3 (genotype 1a) peptide on HLA-A*02:01 (human).
T3 peptide: CINGVCWTV
Nature of the experiment: T cell clone or line.

Experiment [4] has as its target T4, HCV NS3 1073 (genotype 5) peptide on HLA-A*02:01 (human).
T4 peptide: CINGVMWTV
Kind of experiment: cytokine release.

Experiment [5] has as its target T5, HCV NS3 peptide on HLA-A*02:01 (human).
T5 peptide: KLVALGINAV
Kind of experiment: cytokine release.

For experiment [6], the target named is T6, HCV NS3 (genotype 1b) peptide on HLA-A*02:01 (human).
T6 peptide: CVNGVCWTV
Nature of the experiment: cytokine release.

Experiment [7] addresses T7, HCV NS3 1073 (genotype 2) peptide on HLA-A*02:01 (human).
T7 peptide: TISGVLWTV
Kind of experiment: cytokine release.

Experiment [8] addresses T8, HCV NS5 (NS5 2221) peptide on HLA-A*02:01 (human).
T8 peptide: SPDADLIEANL
Kind of experiment: cytokine release.

In experiment [9] the target is T9, HCV NS3 1073-1081, alanine analogue 1078-Ala (position 6) peptide on HLA-A*02:01 (human).
T9 peptide: CINGVAWTV
Nature of the experiment: cytokine release.

The target of experiment [10] is T10, HCV NS3 1073-1081, alanine analogue 1080-Ala (position 8) peptide on HLA-A*02:01 (human).
T10 peptide: CINGVCWAV
Kind of experiment: cytokine release.

The target in experiment [11] is T11, HCV NS3 1073 (genotype 3) peptide on HLA-A*02:01 (human).
T11 peptide: TIGGVMWTV
Nature of the experiment: cytokine release.

Experiment [12] addresses T12, Flu neuraminidase (Flu-NA231) peptide on HLA-A*02:01 (human).
T12 peptide: CVNGSCFTV
Kind of experiment: cytokine release.

The target in experiment [13] is T13, HCV NS3 1073 (genotype 4) peptide on HLA-A*02:01 (human).
T13 peptide: AVNGVMWTV
Nature of the experiment: cytokine release.

Experiment [14] concerns the target T14, HCV NS3 1073-1081, alanine analogue 1081-Ala (position 9) peptide on HLA-A*02:01 (human).
T14 peptide: CINGVCWTA
Kind of experiment: cytokine release.

The target in experiment [15] is T15, HCV NS3 1073-1081, alanine analogue 1073-Ala (position 1) peptide on HLA-A*02:01 (human).
T15 peptide: AINGVCWTV
Kind of experiment: cytokine release.

The target in experiment [16] is T16, HCV NS3 1073 (genotype 6) peptide on HLA-A*02:01 (human).
T16 peptide: AINGVMWTV
Nature of the experiment: cytokine release.

Experiment [17] has as its target T17, HCMV pp65 (pp65 495) peptide on HLA-A*02:01 (human).
T17 peptide: NLVPMVATV
Nature of the experiment: cytokine release.

For experiment [18], the target named is T3, HCV NS3 (genotype 1a) peptide on …. Kind of experiment: multimer staining.
Experiment [19] deals with T2, HCV NS3 1073-1081, alanine analogue …. Kind of experiment: cytokine release.
The target of experiment [20] is T18, HCV NS3 (genotype 1a) peptide on HLA-A*02:01 (human/mouse chimera).
T18 peptide: CINGVCWTV
Kind of experiment: cytokine release.

A value given as a limit tells only on which side of the number the result lay.

B1: TCR-69 (TCR, V domains shown)
Valpha: LAKTTQPPSMEAYEGQEVNVSCSHTNIATSEYIYWYRQVPHQGPQFIIQGYKDYVVNEVASLFISADRKLSTLSLPWVSLRDAAVYYCIVTDLGITGNTGKLIFGLGTTLQVQP
Vbeta: EAAVTQSPRNKVAVTGGKVTLSCNQTNNHNNMYWYRQDTGHGLRLIHYSYGAGSTEKGDIPDGYKASRPSQENFSLILELATPSQTSVYFCASGDEGYNSPLYFAAGTRLTVT
In the case of B1, the binding result in [1] is given as “recognises”.

B2: I4G7 alpha chain with I4G7 beta chain2 (TCR, V domains shown)
Valpha: AQSVTQPDARVTVSEGASLQLRCKYSYFGTPYLFWYVQYPRQGLQLLLKYYPGDPVVQGVNGFEAEFSKSNSSFHLRKASVHWSDWAVYFCAVSRDTNTGKLTFGDGTVLTVKP
Vbeta: EAAVTQSPRNKVTVTGGNVTLSCRQTNSHNYMYWYRQDTGHGLRLIHYSYGAGNLRIGDVPDGYKATRTTQEDFFLLLELASPSQTSLYFCASSDYRDSGNTLYFGEGSRLIVV
For B2, in experiment [2], the EC50 of peptide turned out to be 0.08 mg/L. Further, the “peptide concentration at which reactive” value in experiment [3] was less than 100 ng/mL. The binding result was “no recognition” in experiment [4]; “no recognition” in experiment [5]; “recognises” in [6]; “no recognition” in experiment [7]; “no recognition” in experiment [8]; “recognises” in experiment [9]. Besides, the binding result was “recognises” in experiment [10]; “no recognition” in experiment [11]; “no recognition” in experiment [12]; “no recognition” in experiment [13]; “recognises” in experiment [14]; “recognises” in experiment [15]. Further, the binding result in experiment [1], in experiment [16] and in experiment [17] was “no recognition” throughout.

B3: I4G7 alpha chain with I4G7 beta chain1 (TCR, V domains shown)
Valpha: AQSVTQPDARVTVSEGASLQLRCKYSYFGTPYRIEFSGREFALLFWYVQYPRQGLQLLLKYYPGDPVVQGVNGFEAEFSKSNSSFHLRKASVHWSDWAVYFCAVSRDTNTGKLTFGDGTVLTVKP
Vbeta: EAAVTQSPRNKVAVTGGKVTLSCNQTNNHNNMGELNLAAANSPLYWYRQDTGHGLRLIHYSYVADSTEKGDIPDGYKASRPSQENFSLILELASLSQTAVYFCASSGGLGGHTLYFGAGTRLSVL
In experiment [2], B3 registered an EC50 of peptide of 0.08 mg/L. For the same molecule, in [3], the “peptide concentration at which reactive” value was less than 100 ng/mL. In addition, the binding result in experiment [4] is given as “no recognition”; in [5] it was “no recognition”; in [6], “recognises”; in experiment [7], “no recognition”; in experiment [8] it was “no recognition”; in experiment [9], “recognises”. For the same molecule, the binding result was “recognises” in experiment [10]; “no recognition” in [11]; “no recognition” in [12]; “no recognition” in experiment [13]; “recognises” in experiment [14]; “recognises” in experiment [15]. Also, the binding result in experiment [1], in experiment [16] and in [17] was “no recognition” throughout.

B4: I8H4 (TCR, V domains shown)
Valpha: AQKVTQTQTSISVVEKTTVTMDCVYETRDSSYFLFWYKQTASGEIVFLIRQDSYKKENATVGHYSLNFQKPKSSIGLIITATQIEDSAVYFCAMREITGNTGKLIFGLGTTLQVQP
Vbeta: EAAVTQSPRNKVTVTGGNVTLSCRQTNSHNYMYWYRQDTGHGLRLIHYSYGAGNLRIGDVPDGYKATRTTQEDFFLLLELASPSQTSLYFCASSDALGGEDAEQFFGPGTRLTVL
As for B4, the binding result in [18] is “recognises”; in experiment [4], “no recognition”; in experiment [5], “no recognition”; in experiment [6] it was “recognises”; in experiment [7] it was “no recognition”; in experiment [8], “no recognition”. Also, the binding result in [9] is “recognises”; in experiment [10], “recognises”; in [19], “recognises”; in experiment [11], “no recognition”; in experiment [12], “no recognition”; in experiment [13] it was “no recognition”. The binding result is recorded as “recognises” in experiment [14]; “recognises” in [15]; “no recognition” in [1]; “no recognition” in [16]; “no recognition” in [17]; “recognises” in [20].

B5: TCR-19 (TCR, V domains shown)
Valpha: GEKVEQHQSTLSVREGDSAVINCTYTDTASSYFPWYKQEAGKSLHFVIDIRSNVDRKQSQRLTVLLDKKAKRFSLHITATQPEDSAIYFCAASLITGNTGKLIFGLGTTLQVQP
Vbeta: GGIITQTPKFLIGQEGQKLTLKCQQNFNHDTMYWYRQDSGKGLRLIYYSITENDLQKGDLSEGYDASREKKSSFSLTVTSAQKNEMAVFLCASSLTANTEVFFGKGTRLTVV
B5: the binding result in experiment [1] is listed as “recognises”.

B6: I8A4 (TCR, V domains shown)
Valpha: LAKTTQPPSMEAYEGQEVNVSCSHTNIATSEYIYWYRQVPHQGPQFIIQGYKDYVVNEVASLFISADRKLSTLSLPWVSLRDAAVYYCIVTDMETGGYKVVFGSGTRLLVSP
Vbeta: EAAVTQSPRNKVAVTGGKVTLSCNQTNNHNNMYWYRQDTGHGLRLIHYSYGAGSTEKGDIPDGYKASRPSQENFSLILELATPSQTSVYFCASASTGASSYEQYFGPGTRLTVL
For the molecule B6, the EC50 of peptide in experiment [3] was no more than 0.4 mg/L. The binding result in [4] is given as “no recognition”; in [5], “no recognition”; in experiment [6] it was “recognises”; in experiment [7], “no recognition”; in [8] it was “no recognition”; in experiment [11] it was “no recognition”. In addition, the binding result in [12] is reported as “no recognition”; in experiment [13] it was “no recognition”; in experiment [15], “recognises”; in experiment [1] it was “no recognition”; in experiment [16], “no recognition”; in experiment [17], “no recognition”.

B7: I4F8 (TCR, V domains shown)
Valpha: AQSVTQPDARVTVSEGASLQLRCKYSYFGTPYLFWYVQYPRQGLQLLLKYYPGDPVVQGVNGFEAEFSKSNSSFHLRKASVHWSDWAVYFCAVSNMGYKLTFGTGTSLLVDP
Vbeta: DPKIIQKPKYLVAVTGSEKILICEQYLGHNAMYWYRQSAKKPLEFMFSYSYQKLMDNQTASSRFQPQSSKKNHLDLQITALKPDDSATYFCASSQEMGGALEQYFGPGTRLTVL
Turning to B7, the “peptide concentration at which reactive” value in experiment [3] was less than 100 ng/mL. In addition, the binding result is “no recognition” in experiment [4]; “no recognition” in experiment [5]; “recognises” in [6]; “no recognition” in experiment [7]; “no recognition” in [8]; “recognises” in experiment [9]. The binding result in experiment [10] is on record as “recognises”; in experiment [19] it was “recognises”; in experiment [11], “no recognition”; in [12] it was “no recognition”; in experiment [13], “no recognition”; in experiment [14] it was “recognises”. Moreover, the binding result is “recognises” in experiment [15], “no recognition” in [1], “no recognition” in experiment [16] and “no recognition” in experiment [17].
